Drawing on patent US20220348620A1, this text covers mean fold for one substance.

Among the targets are COPA (human) (UniProt P53621); COPB1 (human) (UniProt P53618); DDB1 (human) (UniProt Q16531); DDOST (human) (UniProt P39656); HSPA8 (human) (UniProt P11142); OPA1 (human) (UniProt O60313); RPN1 (human) (UniProt P04843); RPN2 (human) (UniProt P04844); SLC25A13 (human) (UniProt Q9UJS0); TFRC (human) (UniProt P02786).
Common to all, as to assay: anti-Flag pull-down from MFF1-transfected PC3 cells, LC-MS/MS; intensity over control, mean of two experiments

Chain of SLC25A13 (human) (Q9UJS0 2-675 limits assumed): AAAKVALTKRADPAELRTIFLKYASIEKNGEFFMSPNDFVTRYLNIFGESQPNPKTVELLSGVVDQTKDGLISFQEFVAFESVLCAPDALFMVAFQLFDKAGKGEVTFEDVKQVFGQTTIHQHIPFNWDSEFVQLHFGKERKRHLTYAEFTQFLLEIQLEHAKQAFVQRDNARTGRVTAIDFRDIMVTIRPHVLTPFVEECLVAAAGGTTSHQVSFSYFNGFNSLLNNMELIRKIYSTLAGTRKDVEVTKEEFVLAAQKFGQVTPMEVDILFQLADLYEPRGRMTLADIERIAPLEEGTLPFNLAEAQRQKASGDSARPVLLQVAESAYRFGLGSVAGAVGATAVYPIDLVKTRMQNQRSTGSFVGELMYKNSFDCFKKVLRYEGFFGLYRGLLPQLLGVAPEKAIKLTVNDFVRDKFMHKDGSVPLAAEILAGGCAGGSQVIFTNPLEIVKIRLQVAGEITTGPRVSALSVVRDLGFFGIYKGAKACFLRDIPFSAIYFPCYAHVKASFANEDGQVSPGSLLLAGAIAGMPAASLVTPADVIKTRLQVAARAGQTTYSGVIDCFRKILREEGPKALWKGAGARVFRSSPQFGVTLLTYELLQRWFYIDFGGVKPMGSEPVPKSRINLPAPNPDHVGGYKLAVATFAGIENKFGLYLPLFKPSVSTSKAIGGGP
Chain of OPA1 (human) (O60313 88-960 limits assumed): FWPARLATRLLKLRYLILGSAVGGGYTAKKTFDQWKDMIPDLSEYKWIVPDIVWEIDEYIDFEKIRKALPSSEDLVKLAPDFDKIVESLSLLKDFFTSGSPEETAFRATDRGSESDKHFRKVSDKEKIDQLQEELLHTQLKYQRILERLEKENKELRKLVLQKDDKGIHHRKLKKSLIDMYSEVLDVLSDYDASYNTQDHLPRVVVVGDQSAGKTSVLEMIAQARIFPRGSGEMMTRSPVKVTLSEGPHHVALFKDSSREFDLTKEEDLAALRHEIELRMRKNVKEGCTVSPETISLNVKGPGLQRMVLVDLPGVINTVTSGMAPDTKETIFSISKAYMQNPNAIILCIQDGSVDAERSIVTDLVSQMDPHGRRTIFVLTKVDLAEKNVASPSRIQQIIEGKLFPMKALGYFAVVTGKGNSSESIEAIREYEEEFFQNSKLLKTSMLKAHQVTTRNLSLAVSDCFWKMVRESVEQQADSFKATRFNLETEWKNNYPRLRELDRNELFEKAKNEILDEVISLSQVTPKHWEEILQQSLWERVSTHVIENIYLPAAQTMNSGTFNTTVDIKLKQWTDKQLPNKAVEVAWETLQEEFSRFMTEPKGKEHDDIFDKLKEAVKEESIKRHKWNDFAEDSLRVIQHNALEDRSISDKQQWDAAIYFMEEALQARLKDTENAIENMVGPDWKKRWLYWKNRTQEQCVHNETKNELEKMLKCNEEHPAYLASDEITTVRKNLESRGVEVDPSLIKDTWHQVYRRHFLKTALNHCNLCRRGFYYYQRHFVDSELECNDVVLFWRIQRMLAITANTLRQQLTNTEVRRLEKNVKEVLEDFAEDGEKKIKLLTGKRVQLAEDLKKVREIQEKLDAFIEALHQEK
Chain of COPB1 (human) (P53618 2-953 limits assumed): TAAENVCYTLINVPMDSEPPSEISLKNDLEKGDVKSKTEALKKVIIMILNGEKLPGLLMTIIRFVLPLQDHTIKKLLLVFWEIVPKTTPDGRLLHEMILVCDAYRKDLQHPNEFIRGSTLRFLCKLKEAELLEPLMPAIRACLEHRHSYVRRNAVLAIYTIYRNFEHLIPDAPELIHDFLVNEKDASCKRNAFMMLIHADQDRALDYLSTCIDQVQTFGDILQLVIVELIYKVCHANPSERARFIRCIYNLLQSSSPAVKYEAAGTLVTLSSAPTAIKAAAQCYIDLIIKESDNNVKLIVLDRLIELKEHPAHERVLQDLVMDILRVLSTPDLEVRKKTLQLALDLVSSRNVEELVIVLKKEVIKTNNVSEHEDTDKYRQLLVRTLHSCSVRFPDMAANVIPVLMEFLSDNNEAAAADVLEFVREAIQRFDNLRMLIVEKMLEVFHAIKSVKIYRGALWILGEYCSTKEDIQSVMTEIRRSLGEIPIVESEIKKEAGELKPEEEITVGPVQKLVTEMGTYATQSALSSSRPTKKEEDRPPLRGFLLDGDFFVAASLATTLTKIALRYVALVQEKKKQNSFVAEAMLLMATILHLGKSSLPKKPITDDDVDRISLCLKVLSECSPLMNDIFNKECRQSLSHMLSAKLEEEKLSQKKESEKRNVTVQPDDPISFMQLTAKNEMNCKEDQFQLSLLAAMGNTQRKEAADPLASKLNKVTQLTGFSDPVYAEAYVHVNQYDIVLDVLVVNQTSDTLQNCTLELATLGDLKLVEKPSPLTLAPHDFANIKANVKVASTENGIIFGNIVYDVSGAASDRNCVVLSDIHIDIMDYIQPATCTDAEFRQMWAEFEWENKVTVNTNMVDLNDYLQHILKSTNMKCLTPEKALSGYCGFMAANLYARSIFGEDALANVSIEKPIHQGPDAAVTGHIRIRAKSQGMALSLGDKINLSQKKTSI
Chain of DDB1 (human) (Q16531 2-1140 limits assumed): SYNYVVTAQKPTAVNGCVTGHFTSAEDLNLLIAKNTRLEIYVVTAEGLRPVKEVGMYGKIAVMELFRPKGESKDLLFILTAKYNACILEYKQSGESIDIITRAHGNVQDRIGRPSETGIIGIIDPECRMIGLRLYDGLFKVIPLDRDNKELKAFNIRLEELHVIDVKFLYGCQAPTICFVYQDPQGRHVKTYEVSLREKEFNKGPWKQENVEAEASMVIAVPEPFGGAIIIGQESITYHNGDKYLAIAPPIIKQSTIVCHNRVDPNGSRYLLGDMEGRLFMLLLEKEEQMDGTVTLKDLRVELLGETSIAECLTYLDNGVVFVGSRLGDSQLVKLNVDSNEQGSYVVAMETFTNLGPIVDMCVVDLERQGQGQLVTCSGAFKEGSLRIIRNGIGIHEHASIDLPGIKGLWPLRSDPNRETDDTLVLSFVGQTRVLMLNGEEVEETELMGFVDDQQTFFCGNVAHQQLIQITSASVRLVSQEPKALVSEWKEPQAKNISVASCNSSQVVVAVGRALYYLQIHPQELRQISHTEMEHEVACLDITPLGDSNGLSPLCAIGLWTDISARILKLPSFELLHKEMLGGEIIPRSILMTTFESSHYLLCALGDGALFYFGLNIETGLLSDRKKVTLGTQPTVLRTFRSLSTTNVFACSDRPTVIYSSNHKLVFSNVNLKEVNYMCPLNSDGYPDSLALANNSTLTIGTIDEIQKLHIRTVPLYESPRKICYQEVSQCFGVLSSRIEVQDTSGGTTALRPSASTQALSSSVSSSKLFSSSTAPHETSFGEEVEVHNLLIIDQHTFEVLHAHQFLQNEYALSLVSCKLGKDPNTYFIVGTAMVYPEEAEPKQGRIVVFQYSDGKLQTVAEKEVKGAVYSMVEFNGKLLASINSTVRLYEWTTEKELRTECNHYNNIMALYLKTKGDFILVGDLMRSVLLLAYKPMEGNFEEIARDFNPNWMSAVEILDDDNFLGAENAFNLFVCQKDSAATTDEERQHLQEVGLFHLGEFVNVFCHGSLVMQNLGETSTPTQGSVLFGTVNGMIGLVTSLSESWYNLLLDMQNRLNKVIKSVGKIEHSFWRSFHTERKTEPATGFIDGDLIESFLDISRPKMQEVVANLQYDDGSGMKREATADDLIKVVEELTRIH
Chain of HSPA8 (human) (P11142 2-646 limits assumed): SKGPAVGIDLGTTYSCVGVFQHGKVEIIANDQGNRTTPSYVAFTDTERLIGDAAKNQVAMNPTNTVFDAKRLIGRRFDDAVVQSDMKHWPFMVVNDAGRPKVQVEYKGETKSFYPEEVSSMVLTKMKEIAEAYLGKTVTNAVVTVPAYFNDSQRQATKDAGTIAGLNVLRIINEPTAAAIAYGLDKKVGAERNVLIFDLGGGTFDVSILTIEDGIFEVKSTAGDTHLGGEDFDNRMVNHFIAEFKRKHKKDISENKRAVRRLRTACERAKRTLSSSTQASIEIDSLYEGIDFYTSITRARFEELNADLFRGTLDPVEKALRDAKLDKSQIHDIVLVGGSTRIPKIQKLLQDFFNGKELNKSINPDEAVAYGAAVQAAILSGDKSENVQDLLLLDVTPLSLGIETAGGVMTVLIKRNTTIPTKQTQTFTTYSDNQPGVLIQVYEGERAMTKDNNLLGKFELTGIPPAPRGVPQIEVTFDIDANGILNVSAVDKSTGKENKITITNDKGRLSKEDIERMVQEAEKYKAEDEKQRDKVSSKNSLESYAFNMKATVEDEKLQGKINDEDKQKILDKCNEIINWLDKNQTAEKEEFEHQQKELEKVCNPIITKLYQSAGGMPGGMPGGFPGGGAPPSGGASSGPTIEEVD
Chain of RPN1 (human) (P04843 24-607 limits assumed): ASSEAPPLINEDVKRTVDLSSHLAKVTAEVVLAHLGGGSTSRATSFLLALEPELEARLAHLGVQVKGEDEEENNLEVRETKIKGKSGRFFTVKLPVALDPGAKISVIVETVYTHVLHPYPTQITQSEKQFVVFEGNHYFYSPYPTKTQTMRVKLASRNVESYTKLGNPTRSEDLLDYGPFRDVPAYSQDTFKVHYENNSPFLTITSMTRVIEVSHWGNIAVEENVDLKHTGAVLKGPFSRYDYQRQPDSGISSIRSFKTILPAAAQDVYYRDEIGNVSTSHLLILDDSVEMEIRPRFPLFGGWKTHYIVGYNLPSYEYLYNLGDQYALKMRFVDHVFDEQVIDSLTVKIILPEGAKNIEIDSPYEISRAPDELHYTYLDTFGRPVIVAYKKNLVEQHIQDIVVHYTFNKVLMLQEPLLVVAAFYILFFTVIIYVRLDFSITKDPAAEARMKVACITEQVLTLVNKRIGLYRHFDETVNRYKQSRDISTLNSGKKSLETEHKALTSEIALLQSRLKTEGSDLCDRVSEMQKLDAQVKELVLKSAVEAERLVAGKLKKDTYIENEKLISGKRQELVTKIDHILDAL

Regarding Flag-MFF1 (from UniProt Q9GZY8 1-342), the mean fold in the experiment with COPA (human) was found to be 19.3 fold; in the experiment with COPB1 (human), 18.5 fold; in the experiment with DDB1 (human), 32.3 fold; with DDOST (human), 17.1 fold; with HSPA8 (human) it was 21.4 fold; with OPA1 (human) it was 25.2 fold. Moreover, the mean fold with RPN1 (human) was 10.8 fold; in the experiment with RPN2 (human), 12.1 fold; in the experiment with SLC25A13 (human), 15.1 fold; with TFRC (human), 25.3 fold.
